Experiment [1] in a line: PGE2-biotinamide ELISA (PGE2 binding). How it is done: (§1) Enzyme linked immunosorbent assays to screen for anti-PGE2 antibodies or anti-PGE2 containing DVD-Ig molecules that bind prostaglandin E2 were performed as follows. ELISA plates (Costar 3369, Corning, N.Y.) were coated with 50 μl of anti-host Fc IgG (Sigma, St. Louis, Mo.) at 2 μg/ml in PBS (Invitrogen Carlsbad, Calif.). Following an overnight incubation at 4° C., the plate was blocked with 200 μl Superblock (Pierce #37535, Rockford, Ill.). The IgG or DVD-Ig containing samples were diluted to 1 μg/ml in Assay Buffer (10% Superblock in PBS containing 0.05% Surfactamps (Pierce #37535, Rockford, Ill.) and incubated on the plate at 50 μl/well for 1 hour at room temperature. Following the incubation, plates were washed four times with TTBS (Tween-Tris Buffered Solution). For PGE2 binding, PGE2-biotinamide (Cayman Chemicals, Ann Arbor, Mich.) was diluted to 30 nM and serially diluted in Assay Buffer. The titration curve was added to each IgG or DVD-Ig sample at a volume of 50 μl/well and incubated for 1 hour at room temperature. The plates were washed as previously described and 50 μl/well of 1:5000 dilution of streptavidin polyhrp40 (Fitzgerald Industries, Concord, Mass.) in Assay Buffer was added and incubated for 45 minutes at room temperature. A final wash step was performed and the plates were developed using a single step TMB system (Sigma #T8665, St. Louis, Mo.) and 2N H2SO4. Plates were read at 450 nm on a Molecular Devices Spectramax plate reader (Sunnyvale, Calif.). EC50 was determined using GraphPad Prism 5 (GraphPad Software, La Jolla, Calif.) (FIG. 2).
as §1, with “ELISA” for “Enzyme linked immunosorbent assays to screen for anti-PGE2 antibodies or anti-PGE2 containing DVD-Ig molecules that bind prostaglandin E2 were performed as follows. ELISA”, “(Invitrogen,” for “(Invitrogen”, “IgG” for “IgG or DVD-Ig”, “Solution).” for “Solution). For PGE2 binding,”, “Calif.).” for “Calif.) (FIG. 2).”
Background: ELISA stands for enzyme-linked immunosorbent assay.

For experiment [2], the system named is PGE2 / human EP4 receptor in HEK293 Gα16 cells. Description: EP4 bioassay (Ca++ flux, neutralization of PGE2). The experiment is classed as cell-based. The note with it: EP4 bioassay, Ca++ flux. How it is done:
The ability of anti-PGE2 antibodies and anti-PGE2 containing DVD-Ig molecules to inhibit the cellular response of PGE2 was determined in a Ca++ flux assay in HEK293 Gα16 cells stably transfected with human EP4 receptor. Cells were plated in black/clear poly-D-lysine plates, (Corning #3667, Corning, N.Y.) and incubated with Ca++-sensitive dye (Molecular Devices) for 90 minutes. Stock PGE2 (in 200 proof ethanol) was diluted with FLIPR buffer (containing 1×HBSS (Invitrogen, Carlsbad, Calif.), 20 mM HEPES (Invitrogen, Carlsbad, Calif.), 0.1% BSA (Sigma, St. Louis, Mo.) and 2.5 mM Probenecid (Sigma, St. Louis, Mo.)). Anti-PGE2 antibodies, DVD-Ig molecules or isotype matched control antibodies were also pre-diluted in FLIPR buffer. 25 μl of PGE2 or pre-incubated PGE2/antibody mixture or pre-incubated PGE2/DVD-Ig molecule mixture was added to the wells pre-plated with cells. A dose response of PGE2 was done by a serial titration of PGE2 and was determined using FLIPR1 or Tetra (Molecular Devices). EC50 was determined using GraphPad Prism 5 (GraftPad Software, La Jolla, Calif.). […] Ca++ flux was monitored using FLIPR1 and data was analyzed using GraphPad Prism 5.
The ability of anti-PGE2 antibodies and anti-PGE2 containing DVD-Ig molecules to inhibit the cellular response of PGE2 was determined in a Ca++ flux assay using stably transfected human EP4 in HEK293 Gα16 cells. Cells were plated in black/clear Poly-D-Lysine plates, (Corning #3667) and incubated with Ca++-sensitive dye (Molecular Devices) for 90 minutes. Stock PGE2 (in 200 proof ethanol) was diluted with FLIPR buffer (containing 1×HBSS, 20 mM HEPES, 0.1% BSA and 2.5 mM Probenecid). Anti-PGE2 antibodies, DVD-Ig molecules or isotype matched control antibodies were also pre-diluted in FLIPR buffer. 25 μl of PGE2 or pre-incubated PGE2/antibody mixture or pre-incubated PGE2/DVD-Ig molecule mixture was added to the wells pre-plated with cells. A dose response of PGE2 was done by a serial titration of PGE2 and was determined using FLIPR1 or Tetra (Molecular Devices). EC50 was determined using GraphPad Prism 5. […] Ca++ flux was monitored using FLIPR1 and data was analyzed using GraphPad Prism 5.

[3] abbreviates: PGE2 VD in N-terminal position, read-out: Direct Bind ELISA N-terminal VD EC50.
Where [4] appears, read: PGE2 VD in N-terminal position, read-out: N-terminal VD PGE2 Neutralization EC50.
Setting [5] is: PGE2 VD in C-terminal position, read-out: Direct Bind ELISA C-terminal VD EC50.
Setting [6] is: PGE2 VD in C-terminal position, read-out: C-terminal VD PGE2 Neutralization EC50.

Where two headings read alike, the source gives them in different places.

B1: DVD157: DVD-Ig construct listed in Table 4 (antibody)
VH: EVQLVQSGAEVKKPGASVKVSCKASGYTFTKYWLGWVRQAPGQGLEWMGDIYPGYDYTHYNEKFKDRVTLTTDTSTSTAYMELRSLRSDDTAVYYCARSDGSSTYWGQGTLVTVSSASTKGPQVQLVESGGGVVQPGRSLRLSCAASGFTFSVYGMNWVRQAPGKGLEWVAIIWYDGDNQYYADSVKGRFTISRDNSKNTLYLQMNGLRAEDTAVYYCARDLRTGPFDYWGQGTLVTVSS
VL: DVLMTQTPLSLPVTPGEPASISCTSSQNIVHSNGNTYLEWYLQKPGQSPQLLIYKVSNRFSGVPDRFSGSGSGTDFTLKISRVEAEDVGVYYCFQVSHVPYTFGGGTKVEIKRTVAAPEIVLTQSPDFQSVTPKEKVTITCRASQSIGSSLHWYQQKPDQSPKLLIKYASQSFSGVPSRFSGSGSGTDFTLTINSLEAEDAAAYYCHQSSSLPFTFGPGTKVDIKR
For B1, the figures for the EC50 in experiment [1] (setting [3]) and in experiment [2] (setting [4]) were 1.23 nM and 0.217 nM, respectively.

B2: DVD158: DVD-Ig construct listed in Table 4 (antibody)
VH: QVQLVESGGGVVQPGRSLRLSCAASGFTFSVYGMNWVRQAPGKGLEWVAIIWYDGDNQYYADSVKGRFTISRDNSKNTLYLQMNGLRAEDTAVYYCARDLRTGPFDYWGQGTLVTVSSASTKGPEVQLVQSGAEVKKPGASVKVSCKASGYTFTKYWLGWVRQAPGQGLEWMGDIYPGYDYTHYNEKFKDRVTLTTDTSTSTAYMELRSLRSDDTAVYYCARSDGSSTYWGQGTLVTVSS
VL: EIVLTQSPDFQSVTPKEKVTITCRASQSIGSSLHWYQQKPDQSPKLLIKYASQSFSGVPSRFSGSGSGTDFTLTINSLEAEDAAAYYCHQSSSLPFTFGPGTKVDIKRTVAAPDVLMTQTPLSLPVTPGEPASISCTSSQNIVHSNGNTYLEWYLQKPGQSPQLLIYKVSNRFSGVPDRFSGSGSGTDFTLKISRVEAEDVGVYYCFQVSHVPYTFGGGTKVEIKR
For the molecule B2, the figures for the EC50 in experiment [1] (setting [5]) and in experiment [2] (setting [6]) were 1.14 nM and 0.21 nM, respectively.

B3: DVD164: DVD-Ig construct listed in Table 4 (antibody)
VH: QVQLQESGPGLVKPSETLSLTCTVSGFSLIGYDLNWIRQPPGKGLEWIGIIWGDGTTDYNSAVKSRVTISKDTSKNQFSLKLSSVTAADTAVYYCARGGYWYATSYYFDYWGQGTLVTVSSASTKGPEVQLVQSGAEVKKPGASVKVSCKASGYTFTKYWLGWVRQAPGQGLEWMGDIYPGYDYTHYNEKFKDRVTLTTDTSTSTAYMELRSLRSDDTAVYYCARSDGSSTYWGQGTLVTVSS
VL: DIQMTQSPSSLSASVGDRVTITCRASQSISNNLNWYQQKPGKAPKLLIYYTSRFHSGVPSRFSGSGSGTDFTFTISSLQPEDIATYYCQQEHTLPYTFGQGTKLEIKRTVAAPDVLMTQTPLSLPVTPGEPASISCTSSQNIVHSNGNTYLEWYLQKPGQSPQLLIYKVSNRFSGVPDRFSGSGSGTDFTLKISRVEAEDVGVYYCFQVSHVPYTFGGGTKVEIKR
As for B3, the figures for the EC50 in experiment [1] (setting [5]) and in experiment [2] (setting [6]) were 1.3 nM and 0.079 nM, respectively.

B4: AB048: parent antibody, PGE2, SEQ ID 48/49 (antibody, V domains shown)
VH: EVQLVQSGAEVKKPGASVKVSCKASGYTFTKYWLGWVRQAPGQGLEWMGDIYPGYDYTHYNEKFKDRVTLTTDTSTSTAYMELRSLRSDDTAVYYCARSDGSSTYWGQGTLVTVSS
VL: DVLMTQTPLSLPVTPGEPASISCTSSQNIVHSNGNTYLEWYLQKPGQSPQLLIYKVSNRFSGVPDRFSGSGSGTDFTLKISRVEAEDVGVYYCFQVSHVPYTFGGGTKVEIKR
On to B4, for which the EC50 in experiment [1] (parent antibody (cell spans both VD columns), read-out: Direct Bind ELISA EC50 (PGE2 binding)) is 1.49 nM; in experiment [2] (parent antibody (cell spans both VD columns), read-out: PGE2 Neutralization EC50), 0.017 nM.

B5: DVD162: DVD-Ig construct listed in Table 4 (antibody)
VH: EVQLVESGGGLVQPGGSLRLSCAASGYTFTNYGMNWVRQAPGKGLEWVGWINTYTGEPTYAADFKRRFTFSLDTSKSTAYLQMNSLRAEDTAVYYCAKYPHYYGSSHWYFDVWGQGTLVTVSSASTKGPEVQLVQSGAEVKKPGASVKVSCKASGYTFTKYWLGWVRQAPGQGLEWMGDIYPGYDYTHYNEKFKDRVTLTTDTSTSTAYMELRSLRSDDTAVYYCARSDGSSTYWGQGTLVTVSS
VL: DIQMTQSPSSLSASVGDRVTITCSASQDISNYLNWYQQKPGKAPKVLIYFTSSLHSGVPSRFSGSGSGTDFTLTISSLQPEDFATYYCQQYSTVPWTFGQGTKVEIKRTVAAPDVLMTQTPLSLPVTPGEPASISCTSSQNIVHSNGNTYLEWYLQKPGQSPQLLIYKVSNRFSGVPDRFSGSGSGTDFTLKISRVEAEDVGVYYCFQVSHVPYTFGGGTKVEIKR
Consider B5, for which the EC50 in experiment [1] (setting [5]) worked out at 1.32 nM; in experiment [2] (setting [6]), 0.067 nM.

B6: DVD161: DVD-Ig construct listed in Table 4 (antibody)
VH: EVQLVQSGAEVKKPGASVKVSCKASGYTFTKYWLGWVRQAPGQGLEWMGDIYPGYDYTHYNEKFKDRVTLTTDTSTSTAYMELRSLRSDDTAVYYCARSDGSSTYWGQGTLVTVSSASTKGPEVQLVESGGGLVQPGGSLRLSCAASGYTFTNYGMNWVRQAPGKGLEWVGWINTYTGEPTYAADFKRRFTFSLDTSKSTAYLQMNSLRAEDTAVYYCAKYPHYYGSSHWYFDVWGQGTLVTVSS
VL: DVLMTQTPLSLPVTPGEPASISCTSSQNIVHSNGNTYLEWYLQKPGQSPQLLIYKVSNRFSGVPDRFSGSGSGTDFTLKISRVEAEDVGVYYCFQVSHVPYTFGGGTKVEIKRTVAAPDIQMTQSPSSLSASVGDRVTITCSASQDISNYLNWYQQKPGKAPKVLIYFTSSLHSGVPSRFSGSGSGTDFTLTISSLQPEDFATYYCQQYSTVPWTFGQGTKVEIKR
As for B6, the EC50 worked out at 1.02 nM in experiment [1] (setting [3]) and 0.193 nM in experiment [2] (setting [4]).

What is called EC50 is the concentration at which the effect is half-maximal.
